Laboratory results: article PMC8031663, “Caveolin‐1‐driven membrane remodelling regulates hnRNPK‐mediated exosomal microRNA sorting in cancer”

Molecular target: hnRNPK (6xHis-GFP fusion) (Homo sapiens, UniProt P61978 1-463)
Assay: MST; Kd plotted in Fig 4B, value not in text; MST: 50 mM HEPES, 0.3 M KCl, pH 7.4, 40 nM RNA, protein dilution from 150 uM, temperature not stated; pull-down: 10 mM Tris-Cl pH 7.5, 20 mM KCl, 1.5 mM MgCl2
Details: protein: recombinant; tags: N-terminal 6xHis-GFP, TEV site; label: 5' 6-FAM; single strand

UCAGUGCACUACAGAACUUUGU (ssRNA) [motif_mimic (miR-148a-3p)]: binds.
